Target: human Claudin18.2 (Homo sapiens, UniProt P56856)
Experiment: Cellular ELISA on L929-Claudin 18.2 cells
Format: binding
Design: expressed in transfected cells; host or cells: L929, infected with pLVX-IRES-puro lentivirus, puromycin-selected monoclonal line; cells were formaldehyde-fixed for the cellular ELISA
Details: Table 10 experiment
Protocol: Human Claudin18.2 is a four transmembrane protein and has a complex structure. Cellular ELISA was thus carried out to maintain the structure of Claudin18.2. The stable cell line L929-Claudin 18.2 constructed in Example 1 were used for detection. Specifically, L929-Claudin 18.2 adherent cells were detached by 2 mM EDTA treatment. The cells were resuspended and adjusted to 2×10^5/mL and 100 μL of the resuspension was plated into 96 well plate and incubated overnight at 37° C. The next day, the media was removed, and the plate was washed with PBS once. 100 μL/well 4% formaldehyde was added to the plate. After 30 min of incubation at room temperature, formaldehyde was removed, followed by washing twice with PBS. Blocking buffer (PBS containing 2% BSA) was then added to the plate at 100 μL/well, and incubated at 37° C. for 2 h. After removal of blocking buffer, 100 μL/well of serially diluted antibodies (starting from 1 μM, with 4-fold dilution, for a total of 11 concentrations) were added to the corresponding wells, which were incubated at 37° C. for 2h afterwards. The plate was washed with 250 μL PBST for 5 times, and was allowed to stand for 2 min each time. 100 μL/well of horseradish peroxidase labeled anti-Human IgG secondary antibody (HRP-anti-Human IgG, Jackson ImmunoResearch, 109-035-003) diluted 1:10000 in PBS (containing 2% BSA) was added to the plate. The plate was incubated at 37° C. for 1 h and washed with 250 μL PB ST 6 times, wherein the plate was allowed to stand for 2 min each time. 100 μL/well of TMB solution (Thermo, 34029) was added. The reactions were incubated at 37° C. for 20 min and stopped with 50 μL 2 mol/L H2504. The absorbance at 450 nm was read on a plate reader (MD, SpectraMax M2) and the results were subjected to curve fitting by Graphpad Prism.

B1: 2C6.9-hz11: humanized antibody of 2C6.9; VH SEQ ID NO: 39, VL SEQ ID NO: 41 (antibody, V domains shown)
VH: QVQLQESGPGLVKPSETLSLTCTVSGFSLTRYGVSWIRQPPGKGLEWIGVIWGDGNTNYNPSLKSRVTISKDSSKSQVSLKLSSVTAADTAVYYCARVNFGNALDYWGQGTLVTVSS
VL: DIVMTQSPDSLAVSLGERATINCKSSQSLLNSGNQKNYLTWYQQKPGQPPKLLIYWASTRDSGVPDRFSGSGSGTDFTLTISSLQAEDVAVYYCQNDFIFPLTFGGGTKVEIK
modifications: Heavy chain variable region of humanized antibody 2C6.9hz11; light chain variable region of humanized antibody 2C6.9hz11/2C6.9hz21
- Max Signal Value (OD450): 0.8 OD450

— patent US12297265B2, “Antibody and use thereof” (SICHUAN KELUN-BIOTECH BIOPHARMACEUTICAL CO., LTD., priority 2018, dated 2025)
